The values that follow come from publication PMC11482875 (bioRxiv, 2024).

The term stoichiometry N denotes a count of units in the complex or per binding partner.

The data set concerns the molecule itself. Briefly: SEC-MALS. (In general: In gel filtration, larger molecules generally elute earlier.)

B1: miniTRIM37 RBhcc B-box-2 mutant (other)
chain: MDEQSVESIAEVFRCFICMEKLRDARLCPHCSKLCCFSCIRRWLTEQRAQCPHCRAPLQLRELVNCRWAEEVTQQLDTLQLCSLTKHEENEKDKCENHHEKLSVFCWTCKKCICAQCADWGGMHGGHTFKPLAEIYEQHVTKVNEEVAKLRRRLMELITERNQVAKRVPKAPPEEKEALIARGKALGEETELLESLLQEVEHQLRSCSKSELISKSSEILMMFQQVHRK
With B1, the “stoichiometry N” value was 2.
